Test results published in paper doi:10.1101/2024.04.26.590571.

Target: NB-protein (BchN-BchB α2β2 heterotetramer), electron acceptor component of Rhodobacter sphaeroides DPOR (Rhodobacter sphaeroides)
Test: cryo-EM structure

Chain of L-protein (BchL homodimer), electron donor component of Rhodobacter sphaeroides DPOR (Q9RFD6 whole entry): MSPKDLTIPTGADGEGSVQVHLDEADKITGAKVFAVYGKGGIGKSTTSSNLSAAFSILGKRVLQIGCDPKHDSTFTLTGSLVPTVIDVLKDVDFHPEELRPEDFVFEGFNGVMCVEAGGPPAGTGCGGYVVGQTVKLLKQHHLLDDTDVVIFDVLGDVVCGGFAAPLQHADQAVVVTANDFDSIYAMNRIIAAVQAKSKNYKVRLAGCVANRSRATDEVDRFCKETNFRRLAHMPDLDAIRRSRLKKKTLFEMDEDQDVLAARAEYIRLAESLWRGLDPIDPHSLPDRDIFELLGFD

“L-protein (BchL homodimer), electron donor component of Rhodobacter sphaeroides DPOR (from UniProt Q9RFD6 1-297) (enzyme)” showed a stoichiometry N (L-protein dimer per NB-protein tetramer) of 1 and a stoichiometry N (L-protein dimers per NB-protein tetramer) of 2.
